Results published in US10502741B2, “Means and methods for detecting activated MALT1” (Helmholtz Zentrum München Deutsches Forschungszentrum für …, priority 2014, dated 2019).

How the values were obtained:
active MALT1 = molecular target: T1, active MALT1 (Homo sapiens, UniProt Q9UDY8); assay: MALT1 ELASA in cryo-preserved patient DLBCL tumor samples; conditions: 0.25 μM on lysed tumor tissue
T1 construct: endogenous in cells; host or cells: Jurkat T cells, primary human PBMCs and T cells, DLBCL cell lines (HBL1, TMD8, OCI-Ly3, OCI-Ly10, U2932, RIVA, BJAB, Su-DHL-4, Su-DHL-6)
T1 sequence (Q9UDY8 1-824): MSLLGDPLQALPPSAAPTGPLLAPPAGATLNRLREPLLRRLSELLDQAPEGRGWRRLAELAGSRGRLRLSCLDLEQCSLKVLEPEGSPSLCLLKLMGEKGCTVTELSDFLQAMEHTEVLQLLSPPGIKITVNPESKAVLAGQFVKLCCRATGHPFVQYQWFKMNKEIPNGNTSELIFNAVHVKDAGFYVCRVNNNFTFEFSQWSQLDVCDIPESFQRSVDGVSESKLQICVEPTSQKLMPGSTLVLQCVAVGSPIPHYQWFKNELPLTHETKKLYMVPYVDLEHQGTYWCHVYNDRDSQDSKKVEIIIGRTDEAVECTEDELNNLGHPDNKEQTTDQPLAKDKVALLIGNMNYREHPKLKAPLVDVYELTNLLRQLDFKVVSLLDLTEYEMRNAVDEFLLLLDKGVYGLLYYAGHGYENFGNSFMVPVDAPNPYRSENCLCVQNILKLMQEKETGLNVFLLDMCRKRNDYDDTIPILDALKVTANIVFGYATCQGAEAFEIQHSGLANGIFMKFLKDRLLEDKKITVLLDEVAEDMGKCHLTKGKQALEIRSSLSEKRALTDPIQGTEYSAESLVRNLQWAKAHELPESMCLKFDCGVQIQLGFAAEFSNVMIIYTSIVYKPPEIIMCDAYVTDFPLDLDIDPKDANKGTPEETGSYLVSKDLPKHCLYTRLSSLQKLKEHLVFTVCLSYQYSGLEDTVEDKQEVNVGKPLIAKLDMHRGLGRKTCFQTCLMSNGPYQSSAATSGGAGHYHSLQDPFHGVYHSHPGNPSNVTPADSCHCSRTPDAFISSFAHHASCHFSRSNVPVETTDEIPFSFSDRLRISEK
Method: FIG. 10: A) Active MALT1 detection in cryo-preserved patient tumor samples. Frozen tumor tissue was lysed with a douncer and syringe, incubated with z-VRPR-FMK (0.25 μM) (SEQ ID No. 6) or left untreated before MALT1 activity read-out as above. Relative MALT1 activity from each untreated and z-VRPR-FMK (SEQ ID No. 6) treated samples was measured and directly compared (ABC DLBCL n=8; GCB DLBCL n=7). Significance for MALT1 activity in untreated to z-VRPR-FMK (SEQ ID No. 6) treated samples was calculated by a two-tailed t-test (**<0.005). B) Oncogenic CARMA1 is sufficient to trigger MALT1 activation. BJAB transduced with CARMA1 WT or L244P (ABC derived) or L225PI (GCB derived) were lysed and treated with z-VRPR-FMK (SEQ ID No. 6) and analyzed as above. Results and SD from three independent experiments are shown. MALT1 activity is depicted as arbitrary units [AU].
Untreated DLBCL (1×10^7), primary T cells (0.25×10^7) or Jurkat T cells (0.2-1×10^7) (stimulated or not) were lysed in 300 μl co-IP buffer without protease inhibitors, centrifuged, incubated with probe 7 (concentration as depicted) for 1 h at RT, then transferred to streptavidin-coated plates (96 well, clear) and incubated o/n at 4° C. […] was determined after TMB substrate incubation in a photometer (Bio-Tek). […]

cathepsin B = cathepsin B (Homo sapiens, UniProt P07858); assay: Cathepsin B cleavage assay (zRR-AMC substrate); format: biochemical; design: purchased BioVision; conditions: 0.2 ng cathepsin B, 1 mM zRR-AMC, 2 h at 30° C.
Method: (§1) C) Impact of indicated compounds on MALT1, Caspase8 and cathepsin B was tested in in vitro cleavage assays using fluorescent substrates. Results and SD from three independent experiments are shown.
0.2 ng cathepsin B together with probe 5, z-VRPR-FMK (SEQ ID No. 6), mepazine or CA-074 was incubated with 1 mM zRR-AMC substrate for 2 h at 30° C. Assay was performed in 0.1 M sodium acetate pH 5.5, 10 mM DTT and 0.1 mM EDTA. Again, increase of AMC fluorescence is measured in a Synergy 2 Microplate Reader (Biotek).

MALT1 = molecular target: T2, MALT1 (Homo sapiens, UniProt Q9UDY8); assay: MALT1 in vitro cleavage assay using fluorescent substrate; format: biochemical
T2 construct: GST
T2 sequence (Q9UDY8 1-824): T1 sequence (Q9UDY8 1-824)
Method: as §1
Preferably, MALT1 activity is determined in a MALT1 cleavage assay. […] The assay may be performed in cleavage buffer comprising for example 50 mM MES, 1 M sodium citrate pH 7, 150 mM NaCl, 10% sucrose, 0.1% chaps, 10 mM DTT. Catalytically active MALT1 cleaves the substrate and an increase of AMC fluorescence can be measured.

samples with reduction in MALT1 activity, GCB DLBCL (active MALT1; 7 GCB DLBCL biopsies): one out of seven
samples with reduction in MALT1 activity, ABC DLBCL (active MALT1; 8 ABC DLBCL biopsies): five out of eight
inhibition of MALT1 protease activity in vitro (MALT1): inhibit MALT1
Substance: z-VRPR-FMK (Z N-terminal cap, FMK warhead)
inhibition of cathepsin B activity in vitro (cathepsin B): abrogated cathepsin B activity even though slightly less efficient
